What all share (assay): AUC
Assay [1] addresses PcdhγA8 EC2-EC6 (mouse).
For assay [2], the target named is PcdhγC5 EC1-EC5 (mouse).
Assay [3] has as its target PcdhαC2 EC1-EC4 (mouse).
Assay [4] addresses PcdhαC2 EC1-EC6 S118R (mouse).
Assay [5] addresses PcdhγB6 EC1-EC4.
Assay [6] has as its target PcdhγC5 EC2-EC6 (mouse).
Assay [7] deals with PcdhαC2 EC1-EC6 (complete ectodomain) (mouse).
Assay [8] deals with PcdhγA8 EC1-EC4 (mouse).
Assay [9] concerns the target PcdhγC5 EC2-EC6 S116R (mouse).
The target of assay [10] is PcdhαC2 EC2-EC6 (mouse).
The target in assay [11] is PcdhγC5 EC1-EC6 S116R (mouse).
Assay [12] has as its target PcdhγC5 EC1-EC6 (complete ectodomain) (mouse).
Assay [13] has as its target Pcdhα7 EC1-EC5 (mouse).
Assay [14] deals with PcdhγB6 EC1-EC6 (complete ectodomain).
Assay [15] concerns the target PcdhαC2 EC1-EC5 (mouse).

With PcdhγA8 EC2-EC6 (domain or fragment), in [1], the Kd – broadly, the equilibrium constant for the complex coming apart – amounted to 23 µM and the stoichiometry N (usually a count of units in the complex or per binding partner) amounted to 2.
In assay [2], PcdhγC5 EC1-EC5 (domain or fragment) returned a Kd of 100 µM and a stoichiometry N of 2.
Regarding PcdhαC2 EC1-EC4 (domain or fragment), in assay [3], the Kd came out at 20 µM and the stoichiometry N turned out to be 2.
As for “PcdhαC2 EC1-EC6 S118R (domain or fragment)”, in assay [4], the dissociation constant (Kd) worked out at 1.8 µM and the stoichiometry N was 4.
Take PcdhγB6 EC1-EC4 (domain or fragment): in assay [5], the Kd was found to be 29 µM and the stoichiometry N worked out at 2.
Take PcdhγC5 EC2-EC6 (domain or fragment): in assay [6], the stoichiometry N was determined as 2.
With “PcdhαC2 EC1-EC6 (complete ectodomain) (domain or fragment)”, in [7], the Kd came out at 0.1 µM and the stoichiometry N amounted to 4.
In assay [8], PcdhγA8 EC1-EC4 (domain or fragment) had a Kd of 30 µM and a stoichiometry N of 2.
In assay [9], “PcdhγC5 EC2-EC6 S116R (domain or fragment)” showed a Kd of 14 µM and a stoichiometry N of 2.
In assay [10], PcdhαC2 EC2-EC6 (domain or fragment) gave a stoichiometry N of 2.
Regarding “PcdhγC5 EC1-EC6 S116R (domain or fragment)”, in assay [11], the Kd is 5.7 µM and the stoichiometry N was 2.
“PcdhγC5 EC1-EC6 (complete ectodomain) (domain or fragment)”: the stoichiometry N in assay [12] is 4.
As to Pcdhα7 EC1-EC5 (domain or fragment), in [13], the Kd amounted to 2.9 µM and the stoichiometry N stood at 2.
In assay [14], “PcdhγB6 EC1-EC6 (complete ectodomain) (domain or fragment)” yielded a stoichiometry N of 4.
Turning to PcdhαC2 EC1-EC5 (domain or fragment), in assay [15], the Kd came to 5.9 µM and the stoichiometry N is 2.

The record behind these values is article PMC4624033.
